According to patent US20250134019A1, “TRIKETONE DIOXYGENASE VARIANTS FOR HERBICIDE TOLERANCE” (Monsanto Technology LLC, priority 2022, published 2025):
Positions count from the first letter of the chain named. In names and notes the source's numbering stands.

B1: TDO_6: Os.TDO variant, SEQ ID NO:38, G242S-P256E relative to D08 (protein)
chain: MADESWRAPALVQELAAKGVEEPPSRYLLREQDRPDVKLVAAELPEPIPVVDLGRLDGAEEATKLRVALQNWGFFLLTNHGIEASLMDDVMNLSREFFNQPIERKQKFSNLIDGKHFQIEGYGTDRVVTQDQVLDWSDRLHLRVEPKEEQDLAFWPDHPESFRDVLHKYASGCKRIRDDIIQAMAKLLELDEDYFLDRFNEAPTFARFNYYPPCPRPDLVFGIRPHSDGGLLTILLVDKDVSGLQVQRDGKWSNVEATPHTLLINLGDTMEVMSNGIFKSPVHRVVTNAEKERISLAMLYSVNDEKDIEPAAGLLDENRPARYRKVSVEEFRAGIFGKFSRGERYIDSLRI
modifications: TDO variant sequence
B2: TDO_8: Os.TDO variant, SEQ ID NO:42, Q32K-I48L-V133I-G242S-P256E relative to D08 (protein)
chain: B1 chain with Q32K, I48L, V133I
modifications: TDO variant sequence
B3: TDO_5: Os.TDO variant, SEQ ID NO:36, E120Q-G242S relative to D08 (protein)
chain: B1 chain with E120Q, E256P
modifications: TDO variant sequence
B4: TDO_1: Os.TDO variant, SEQ ID NO:28, P35S-H116N relative to D08 (protein)
chain: B1 chain with P35S, H116N, S242G, E256P
modifications: TDO variant sequence
B5: TDO_7: Os.TDO variant, SEQ ID NO:40, G242S-S274C relative to D08 (protein)
chain: B1 chain with E256P, S274C
modifications: TDO variant sequence
B6: TDO_4: Os.TDO variant, SEQ ID NO:34, H116N-G242S relative to D08 (protein)
chain: B1 chain with H116N, E256P
modifications: TDO variant sequence
B7: TDO_3: Os.TDO variant, SEQ ID NO:32, P35S-G242S relative to D08 (protein)
chain: B1 chain with P35S, E256P
modifications: TDO variant sequence
B8: Si.TDO: TDO homolog from Setaria italica, SEQ ID NO:8 (protein, listed as Setaria italica)
chain: MANESWKIPMLVQELAAKVQEPPSRYVQPEQQHPVSLVVGAEKPEAIPVIDLSRLLAADGADEEGSKLRLALQSWGLFLIDNHGIETSLMDDLINASREFFHLPLEEKQKCSNLIDGKHYQVEGYGNDPVASKDQILDWLDRLHLRVEPEDERNLVHWPEHPNSFRALLHKYTLNCKRIKDRILWAMAKSLGLDEDYIVAQFSGKAPSFARFNYYPPCPRPDIVFGAKPHSDGGVLTILLMDKDVGGLQVLRDGVWHNVPTSPHRLLVNIGDFSEIMSNGIFKSPVHRVVTNMGKERISLAMFHGLDPEKEIEPATALLHEKQLARYRKIKAKVYLAGFYEHFCRGTRFIDSEDLREVA
B9: ANDge.TDO: TDO homolog from Andropogon gerardii, SEQ ID NO:12 (protein, listed as Andropogon gerardii)
chain: MASSSWRVPTPVQELAAGVVEPPSQFVLQEQDRPESLLLAADMPEPIPVIDLSRLSAADEASKLQSALQTWGLFLVTNHGIEASLMDEVMAASRDFFHQPLQEKQKYSNLIGGKRFQMEGYGNDMVTSQDQILDWQDRLQLRVEPEDERNLAYWPKHPDSFRDLLHEYASKTKKVRDNLLRAMGKILELGDDYFISQIGEKASAVARFNYYPPCPRPELVFGIKPHSDGGAVTILLVDNDVGGLQVQKDGIWYTVPSKPHTLVVNLADSMEIMNNGIFKSPVHRVVTNAEKERLSLAMFYGVEGQKMLEPAAGLLGEDRPARYRKIKAADYIVGLRQGIAKGQRFIETLKI
B10: Ta.TDO: TDO homolog from Triticum aestivum, SEQ ID NO:10 (A4S from codon optimization) (protein, listed as Triticum aestivum)
chain: MASSDESPMVRPTVQELASAGVEEPPRQYVLPEQDRHGDLLAADEFPEPIPLIDLSRLTDADEAERLRAALQTWGFFLATNHGIEGSLMDAMMSVSREFFRQPAEEKQKCSNLVDGNGKDYQVEGYGSDKVVSEDQVLNWSDRLHLRVEPEDERNFAKWPSHPESFRDVLKEYASRTKEIRDLVLRSIAKLLEIDEDYFVNQISNKASGFARFNYYPPCPRPDLVLGLRAHSDGGLLTILFNDDTVGGLQVQRDGRWYNVSAKPHTLLINLADCLEIMNNGIFTSPIHRVVTNIKKDRLSLAVFYAVDAETMLEPAPGLLDDKRPPRYRKMLAKDFVAGLFEHFRQGKRFINTLKI
B11: Cl.Col.TDO2: TDO homolog from Coix lacryma-jobi, SEQ ID NO:16 (protein)
chain: MASSSWRVPTPVQELAAGVVEPPSQFVLQEQDRPESLLLATDMPEPIPVIDLSRLAAADEASKLRSALQTWGLFLVTNHGIEASLMDDVMAASRDFFYQPLEEKQKYSNLVGGKRFQMEGYGNDMVASQDQVLDWQDRLQLRVEPEDERNLAYWPKHPDSFRDLLHEYASKTKKVRDNVLQAMGKLLELGEDYFISQIGGKASAIARFNYYPPCPRPELVFGIKPHSDGGAVTILLVDNDVGGLQVQKDGIWYTVPSKPHTLVVNLGDSMEILNNGIFKSPVHRVVTNAEKERLSLAMFYGVEGQKVLEPAAALLGEERPARYRKIKAADYIVGLRQGIARGNRFIETLKI
modifications: Coix lacryma-jobi
B12: Cl.Col.TDO1: TDO homolog from Coix lacryma-jobi, SEQ ID NO:14 (protein)
chain: MASSSWKVPTPVQELAATLEEPPSRYVLREKDRPSSPLVADDMPEPLPVINLSRLSEDAAEAAKLEAALQSWGLVLVTNHGIETSLMDDVMDTSREFFNQTLEEKQKYSNLIEGKRFQMEGYGNDRVSTEHQILNWNDRLHLKVAPDDERNYTHWPKHPESFRDVLHEYTLKTKKIRDNICSNGQDIGARFNYYPPCPRPDLVNGVQPHSDAGVLTILLVDKEIRGLQVQRDGIWYNVPRKPYTLLINLGDVMEIMSNGIFKSPVHRVVTNTEKERISLAMFYGVDAENVLEPAAGLLDEKRPARYRKVEITDFVAGVHEHFSRGTRFIESLKI
modifications: Coix lacryma-jobi

Assays:
Type in all cases: in vivo
[1] = test system: transgenic soybean plants; assay: Response of R0 soybean plants transformed with Round 2 TDO variants to mesotrione; conditions: R0 transgenic soybean sprayed with mesotrione
Excerpt: The next set of experiments was focused on determining if the balance between improved enzyme stability could outweigh a reduction in activity observed at optimal temperatures in soybean plants. […] To test this hypothesis, the eight variants from Round 2 biochemical analysis described in the preceding paragraph were transformed into soybean through Agrobacterium-mediated transformation, along with three controls. One of the controls (TDO_9) was a variant from the high-throughput screens that had poor activity. Two other controls were the D08 variant and the Os.TDO. R0 transgenic soybean plants were sprayed with the mesotrione herbicide to screen for herbicide tolerance. […] These included the Os.TDO control, the D08 variant and one Round 2 variant. The plants were scored for percent injury as described in the previous examples.

transgenic cotton plants = assay: Mesotrione treatment of cotton plants expressing TDO variants, crop injury; conditions: for Crop Injury (%), 210 g/ha (2X) Mesotrione / Crop Injury (%), 840 g/ha (8X) Mesotrione: R2 cotton sprayed at V3
Procedure: Cotton is a crop of interest that is often exposed to high temperature growing conditions and thus, selected TDO variants were tested in cotton. Three TDO variants, D08, TDO_6, and TDO_8 were transformed into cotton (along with the Os.TDO control) using similar expression elements in single-cassette vectors or as part of multi-cassette vectors. R2 transgenic cotton plants were then screened for tolerance to mesotrione. Sixteen plants from two events each per construct were sprayed with two rates (2X and 8X) of mesotrione at V3 stage under normal (80° F.) and hot (100° F.) growing conditions. In addition, the effect of heat treatment on TDO accumulation in cotton plants were measured by ELISA. Cotton plants were planted and grown under normal greenhouse conditions (80° F. day/70° F. night) until V3 growth stage. Half of the plants were then moved to a higher temperature growth chamber (100° F. day/82° F. night) for the heat treatment, whereas the remaining half of the plants stayed in the same greenhouse (80° F. day/70° F. night). At day 3 after the plants were placed under different temperature conditions, leaf samples were collected for TDO protein measurement. The plants in 100° F. growth chamber and in 80° F. greenhouse were both sprayed with 2X mesotrione (210 g a.i./ha). Leaf samples were collected again 7 days after mesotrione treatment (DAT: Days After Treatment) for protein assay. Table 5 compares protein levels of the TDO variants in transgenic cotton plants grown under the two tested conditions. The protein levels for the TDO variants were measured at three time points for plants: 1) just before entering the high temperature treatment, 2) three days following placement into control (normal growth temperature) or high temperature (100° F.), and 3) 7 days after a 2X mesotrione spray.

[2] = test system: transgenic soybean plants; assay: Mesotrione injury of R0 transgenic soybean plants expressing TDO homologs; conditions: 210 g a.i./ha mesotrione at V3-V4, rated 7-14 days after treatment, mean of all tested events
Procedure: Plant expression vectors comprising the selected TDO homologs under the control of one of two constitutive promoters were transformed into soybean via an Agrobacterium tumefaciens-mediated method. Following Agrobacterium transformation, R0 transgenic soybean plants containing a single copy of the transgene were identified through molecular characterization and segregation analysis. Transgenic and wild-type (control) plants were grown in 6-inch pots filled with BM7 soilless mix in a growth chamber under the conditions of 28° C./23° C. (light/dark) and a 16 hr light/8 hr dark photoperiod. Plants were fertilized with 15-5-15 liquid fertilizer at the V3-V4 growth stage and treated with 210 g a.i./ha mesotrione (1X=105 g a.i./ha; Callisto®, Syngenta in 1% crop oil). Plants were visually rated 7-14 days after treatment on a scale of 0% to 100%, with 0%=no injury and 100%=plant death, relative to the wild-type controls. The results summarized in Table 2 represent the mean of all tested events (10-15) for each construct.

[3] = promoter Constitutive 2, 3' UTR B

Molecule | R0 % Injury [1] [%] | % Injury [2, 3] [%] | other results
B1 | 31 | – | Crop Injury (%), 210 g/ha (2X) Mesotrione (transgenic cotton plants; Under 80° F.): 0%; Crop Injury (%), 840 g/ha (8X) Mesotrione (transgenic cotton plants; Under 80° F.): 0%; Crop Injury (%), 210 g/ha (2X) Mesotrione (transgenic cotton plants; Under 100° F.): 0%; Crop Injury (%), 840 g/ha (8X) Mesotrione (transgenic cotton plants; Under 100° F.): 0%; injury rates relative to Os.TDO controls (transgenic cotton plants; cotton at the higher temperature): trending even lower than the Os.TDO controls
B2 | 31 | – | Crop Injury (%), 210 g/ha (2X) Mesotrione (transgenic cotton plants; Under 80° F.): 0.25%; Crop Injury (%), 840 g/ha (8X) Mesotrione (transgenic cotton plants; Under 80° F.): 0%; Crop Injury (%), 210 g/ha (2X) Mesotrione (transgenic cotton plants; Under 100° F.): 0.27%; Crop Injury (%), 840 g/ha (8X) Mesotrione (transgenic cotton plants; Under 100° F.): 0%
B3 | 30 | – | –
B4 | 30 | – | –
B5 | 32 | – | –
B6 | 32 | – | –
B7 | 35 | – | –
B8 | – | – | % Injury ([2]; promoter Constitutive 1, 3' UTR A): 35%
B9 | – | 55 | –
B10 | – | 50 | –
B11 | – | 53 | –
B12 | – | 61 | –
